# Measurements published in US20180346562A1 (ANAPTYSBIO, published 2018).
# T1: human IL-33 (human, UniProt O95760 112-270, limits assumed)
# T1 sequence (looked up): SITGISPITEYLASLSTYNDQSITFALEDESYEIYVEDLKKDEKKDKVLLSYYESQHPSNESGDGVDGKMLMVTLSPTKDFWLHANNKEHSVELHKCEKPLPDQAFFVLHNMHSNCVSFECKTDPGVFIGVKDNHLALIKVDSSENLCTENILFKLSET
# T2: cynomolgus IL-33 (cynomolgus, UniProt A0A2K5W3I1 112-269)
# T2 construct: also called cynoIL-33; cIL-33
# T2 sequence: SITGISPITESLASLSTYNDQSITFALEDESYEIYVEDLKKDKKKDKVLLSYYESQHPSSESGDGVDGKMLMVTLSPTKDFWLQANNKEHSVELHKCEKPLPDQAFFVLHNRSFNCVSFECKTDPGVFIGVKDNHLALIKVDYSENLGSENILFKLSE
# B1: APE4909 antibody (antibody, V domains shown)
# VH: QVQLMQSGAEVKKPGASVKVSCKASGYTFTSYWMHWVRQAPGQGLEWMGTIYPRNSNTDYNQKFKARVTMTRDTSTSTVYMELSSLRSEDTAVYYCARPLYYYLTSPPTLFWGQGTLVTVSS
# VL: DIQLTQSPSFLSASVGDRVTITCKASQDVGTAVAWYQQKPGKAPKLLIYWASTRHTGVPSRFSGSGSGTEFTLTISSLQPEDFATYYCQQAKTYPFTFGSGTKLEIKR
# notes: the claims treat these entries as variable regions; It was detected with an anti-human antibody; also called APE04909; APE4909.02 (lot suffix)
# How the values were obtained:
# human IL-33 [1] = biological target: T1, human IL-33; assay: cell-based or functional assay
# cynomolgus IL-33 = biological target: T2, cynomolgus IL-33; assay: KinExA solution-phase equilibrium titration: APE4909 at a fixed concentration incubated with cynomolgus IL-33 as titrant, free antibody captured on cIL-33-coated beads
# Experimental: (§1) The ability of the APE4909 antibody described in Example 2 to interact with IL-33 was analyzed biophysically using a KINEXA™ 3200 biosensor platform from Sapidyne Instruments (Boise, Id.). Binding experiments for human and cynomolgus IL-33 (cynolL-33) were conducted as described below and were run twice independently. Conditions for the first experiment are shown non-parenthetically, while conditions for the second experiment are provided parenthetically.
# Solid phase was prepared using azlactone-coated beads coated using a 50 μg/mL solution of histidine-tagged human IL-33. Binding experiments were performed in 1×PBS pH 7.4, 0.1% BSA. The APE4909 antibody at 10 pM (or 20 pM) final concentration was incubated with IL-33 at 200 pM to 3.4 fM (or 400 pM to 6.7 fM) final concentrations for 3 (or 4) days at 4° C. […] Free antibody was detected with an ALEXAFLUOR™ 647-(Life Technologies, Carlsbad, Calif.) labeled donkey anti-human antibody. […]
# Experiments were performed as described above for human IL-33, except that the APE4909 antibody at 20 pM and 100 pM final concentration was incubated with cIL-33 at 3 nM to 315 fM final concentrations for 24 hours at 4° C. […] Free antibody was detected with an ALEXAFLUOR™ 647-(Life Technologies, Carlsbad, Calif.) labeled donkey anti-human antibody. […]
# human IL-33 [2] = biological target: T1, human IL-33; assay: KinExA, solution equilibrium, beads coated with histidine-tagged human IL-33
# Experimental: as §1
# Solid phase was prepared using azlactone-coated beads coated using a 50 μg/mL solution of histidine-tagged human IL-33. Binding experiments were performed in 1×PBS pH 7.4, 0.1% BSA. The APE4909 antibody at 10 pM (or 20 pM) final concentration was incubated with IL-33 at 200 pM to 3.4 fM (or 400 pM to 6.7 fM) final concentrations for 3 (or 4) days at 4° C. 5 mL (or 10 mL) of each mixture was applied to the beads coated with IL-33 at a rate of 0.25 mL/min for 1200 seconds (or 2400 seconds). Free antibody was detected with an ALEXAFLUOR™ 647-(Life Technologies, Carlsbad, Calif.) labeled donkey anti-human antibody. All data fit using standard KINEXA™ software.
Molecule,IC50 of inhibition of IL-33-mediated release of IL-5 in primary human basophils (human IL-33 [1]),IC50 of inhibition of IL-33-mediated release of IL-9 from primary human basophils (human IL-33 [1]),Kd (cynomolgus IL-33),Kd (human IL-33 [2])
monomeric human ST2 protein (APE3906) (from UniProt Q01638 19-328) (receptor),20 nM,–,–,–
B1,2.2 nM,3 nM,0.035 nM,0.001 nM
